Measured values reported in doi:10.1101/2023.10.23.563616.

Key:
[1] = molecular target: His-tagged TclI N-terminal domain (residues 1-85) (M. caseolyticus)
[2] = molecular target: a tagged version of TclJ or TclN; assay: pull-down; nickel copurification: TclI, TclJ and TclN all co-expressed in E. coli, one of them His6-tagged; lysate on Ni-NTA agarose beads, 4°C, 50 mM HEPES pH 7.8, 300 mM NaCl, 60 mM imidazole; SDS-PAGE with Coomassie stain
[3] = molecular target: N-terminally His-tagged TclI (M. caseolyticus); assay: SEC; purified TclIJN complex (TclI, TclJ and TclN as a mixture); Yarra 1.8 μm X150 column, 100 mM sodium phosphate pH 6.8, 0.023% NaN3, 25 °C, 1 μg/μL

Substance: GST-TclE Δ18 leader truncation (peptide)
- percentage of TclE peptides fully modified (six thiazoles) by LC-MS after co-expression of GST-TclE Δ18 with TclI, TclJ and TclN in E. coli [1]: 71.6%

Substance: TclI (untagged) (natural protein)
- stoichiometry N (TclI per tagged enzyme (densitometry)) [2]: 2 to 8

Substance: TclJ (untagged) (enzyme)
- stoichiometry N (TclI per TclJ) [3]: 2

Substance: TclN (untagged) (enzyme)
- stoichiometry N (TclI per TclN) [3]: 2
